Test results as given in US12723255B2, “Herbicide tolerance genes and methods of use thereof” (priority 2014, dated 2026).

B1: MON-HT7: engineered oxygenase protein, amino acid sequence SEQ ID NO:34 (protein)
chain: MHAALTPLTNKYRFIDVQPLTGVLGAEITGVDLREPLDDSTWNEILDAFHTYQVIYFPGQAITNEQHIAFSRRFGPVDPVPLLKSIEGYPEVQMIRREANESGRVIGDDWHADSTFLDAPPAAVVMRAIEVPEYGGDTGFLSMYSAWETLSPTMQATIEGLNVVHSATKVFGSLYQATNWRFSNTSVKVMDVDAGDRETVHPLVVTHPVTGRRALYCNQVYCQKIQGMTDAESKSLLQFLYEHATKFDFTCRVRWKKDQVLVWDNLCTMHRSVPDYAGKFRYLTRTTVAGDKPSR
B2: MON-HT1: engineered oxygenase protein, amino acid sequence SEQ ID NO:14 (protein)
chain: MHAALTPLTNKYRFIDVQPLTGVLGAEITGVDLREPLDDSTWNEILDAFHTYQVIYFPGQAITNEQHIAFSRRFGPVDPVPILKSIEGYPEVQMIRREANESSRFIGDDWHTDSTFLDAPPAAVVMRAIEVPEYGGDTGFLSMYSAWETLSPTMQATIEGLNVVHSATKVFGSLYQATNWRFSNTSVKVMDVDAGDRETVHPLVVTHPVTGRRALYCNQVYCQKIQGMTDAESKSLLQFLYEHATKFDFTCRVRWKKDQVLVWDNLCTMHRAVPDYAGKFRYLTRTTVAGDKPSR
B3: MON-HT55: engineered oxygenase protein, amino acid sequence SEQ ID NO:11 (protein)
chain: MHAALSPLSQRFERIAVQPLTGVLGAEITGVDLREPLDDSTWNEILDAFHTYQVIYFPGQAITNEQHIAFSRRFGPVDPVPLLKSIEGYPEVQMIRREANESGRVIGENWHTDSTFLDAPPAAVVMYAKEIPPYGGDTLFTSMYTAWETLSPTMQATIEGLNVVHSATRVFGSLYQAQNRRFSNTSVKVMDVDAGDRETVHPLVVTHPETGRKGLYVNQVYCQRIEGMSEKESEPLLSFLFAHATKPEFTCRVRWQEGDVLVWDNLCTQHYAVPDYAGKFRYLTRTTVGGVRPAR
B4: MON-HT10: engineered oxygenase protein, amino acid sequence SEQ ID NO:43 (protein)
chain: MHAALTPLTNKYRFIDVQPLCGVLGAEITGVDLREPLDDSTWNEILDAFHTYQVIYFPGQAITNEQHIAFSRRFGPVDPVPLLKSIEGYPEVQMIRREANESGRILGDDWHTDSTFLDAPPAAVVMRAIEVPEYGGDTGFLSMYSAWDTLSDTMKATIEGLNVVHSATRVFGSLYQAQNWRFSNTSVKVMDVDAGDRETVHPLVVSHPVTGRRALYCNQVYCQRIEGMTDAESKCLLQFLYEHATKFDFTCRVRWKKDQVLVWDNLCTMHLAVPDYDGKFRYLTRTTVAGDKPSR
B5: MON-HT6: engineered oxygenase protein, amino acid sequence SEQ ID NO:31 (protein)
chain: MHAALSPLSQKYRFIDVQPLTGVLGAEITGVTLREPLDDNTWNEILDAFHTYQVIYFPGQAITNEQHIAFSRRFGPVDPVPLLKSIEGYPEVQMIRREANESGRVIGDDWHTDSTFLDAPPAAVVMYAREVPPYGGDTGFLSMYSAWDTLSDTMKATIEGLNVVHSATRVFGSLYQAQNRRFSNTSVKVMDVDAGDRETVHPLVVSHPVTGRRALYCNQVYCQRIEGMTDAESKPLLQFLYEHATRFDFTCRVRWKKDQVLVWDNLCTMHRAVPDYAGKFRYLTRTTVAGDKPSR

How the values were obtained:
[1] = format: biochemical
Protocol: To analyze these engineered proteins for activity in higher temperatures, the in vitro enzyme assay in Example 1 was modified to specify pre-heating all of the assay components to the desired temperature for 5 minutes before combining the components and then maintaining the reaction at the desired temperature for the duration of the reaction. To normalize the assay measurements, quizalofop-P was used as the substrate for the reaction and enzyme activity was normalized based on the 25° C. readings. Using these parameters, the temperature at which the enzyme activity was half of maximum (T1/2) was calculated. The T1/2 for MON-HT55 was calculated to be 29° C., and the T1/2 for wild-type RdpA was calculated to be 38° C. (FIG. 2A).
Enzyme activity over a range of temperatures was analyzed in-depth for MON-HT1, MON-HT2, MON-HT7, and MON-HT8. These assays were conducted as described above. Quizalofop-P or 2,4-D was used as the substrate for these reactions and activity was normalized based on the activity of the wild-type enzyme at 25° C. The activity curves obtained are presented in FIG. 2B (with quizalofop-P as the substrate) and FIG. 2C (with 2,4-D as the substrate). Using quizalofop-P as the substrate, MON-HT55 was the most temperature sensitive, with a T1/2 of 29° C. […] MON-HTI was slightly less temperature sensitive, with a T1/2 about 1° C. higher than the wild-type enzyme.

F1 hybrid maize plants = assay: efficacy field trial with segregating F1 hybrid plants; format: in vivo; details: for % Injury from V4 2,4-D / % Injury from V8 2,4-D: 2,4-D amine 2× at VE-V2 (plus quizalofop-P 0.5×), V4, V8; for % Injury from V4 Quizalofop / % Injury from V8 Quizalofop: quizalofop-P 2× at VE-V2, V4, V8
Protocol: Ten unique engineered proteins optimized for activity at higher temperatures were selected for maize transformation and analysis in plants. DNA constructs were produced for expressing these engineered proteins with codon usage optimized for monocot expression using methods known to those skilled in the art. Enhancers, promoters, leaders, introns, CTPs, and 3′UTRs were tested in various combinations with the engineered proteins in these DNA constructs. The DNA constructs were used to transform immature maize (LH244) embryos with these vectors using Agrobacterium tumifaciens and standard methods known in the art. Regenerated R0 transgenic plantlets were grown in the green house.
Transgenic R0 maize plants were screened by the application of quizalofop-P (2×) plus 2,4-D (2×) at 7 to 10 days following transplant into plugs (generally corresponding to V3-V4 growth stage). All constructs tested produced plants containing unique events that passed the RO screen. The R0 plants were selfed to generate R1 homozygous seed and the R0 was also used as the male to cross with inbred plants containing maize event MON89034 to generate segregating F1 hybrid seed for efficacy field trials.
An efficacy field trial was conducted with segregating F1 hybrid plants, with 50% hemizygous and 50% null for the transgene. Tolerance to quizalofop-P (2×) plus 2,4-D (2×) was assessed using two herbicide application regimens: (1) quizalofop-P (Assure II) at 0.16 lb ai/acre (2×) plus 0.25% v/v non-ionic surfactant (NIS) applied at VE-V2 growth stage followed by the same at V4 growth stage followed by the same at V8 growth stage and (2) 2,4-D amine at 2 lb ae/acre (2×) plus quizalofop-P at 0.04 lb ai/acre (0.5×) plus 0.25% v/v NIS applied at VE-V2 growth stage followed by 2,4-D amine at 2 lb ae/acre (2×) plus 0.25% v/v NIS applied at V4 growth stage followed by the same at V8 growth stage. The 50% of the plants that were null for transgene were removed by the first quizalofop-P application at VE-V2 growth stage. Plots were visually rated 10-14 days after application for crop injury on a scale of 0 to 100 with “0” being none and “100” being complete crop destruction. […] The percentage injury rating with 2× application of 2,4-D at V8 growth stage ranged from a high of 40% to a low of 0. Similarly, the percentage injury rating with 2× application of quizalofop-P at V8 growth stage ranged from a high of 90% to a low of 0. Variation in injury rating between plants expressing the same protein is likely due to variations in construct design or transgene insertion location.

[2] = format: physicochemical; details: for T1/2, temperature where 50% of the protein was unfolded, Buffer: pH 7.5
In short: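 Thermal shift assay: purified enzyme in 30 mM Tris pH7.5, 150 mM NaCl, with or without 50 uM Fe2+ and 1.0 mM aKG. Unfolding followed by SYPRO orange fluorescence from 10° C. to 95° C. in 0.5° C. steps; melting temperature (T1/2) taken from the curve.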

[3] = system: mRNA transcribed from the transgene cassette; assay: Quantigene analysis of transgene mRNA expression in leaf samples; details: normalized to maize housekeeping genes, average of eight samples
Source text: Leaf samples were collected from the plants containing transgene cassettes encoding MON-HT1, MON-HT2, and MON-HT8 with and without CTP sequences to determine expression of the mRNA transcribed from the transgene cassette encoding the engineered proteins. Quantigene® analysis was done on the leaf sample extracts to determine mRNA expression of the transgene cassette. For these assays, the probe was to the common 3′-UTR sequence present in each expression cassette used to generate the transgenic plants. Relative expression was calculated by normalizing to maize housekeeping genes. A leaf sample was collected from each of eight plants for each construct configuration used to make the transgenic plants, and the reported relative mRNA expression data is an average of the eight samples with standard error.

Molecule | T1/2, temperature at which the enzyme activity was half of maximum [1] | % Injury from V4 2,4-D (F1 hybrid maize plants; CTP A) | % Injury from V8 2,4-D (F1 hybrid maize plants; CTP A) | % Injury from V4 Quizalofop (F1 hybrid maize plants; CTP A) | % Injury from V8 Quizalofop (F1 hybrid maize plants; CTP A) | T1/2, temperature where 50% of the protein was unfolded, Buffer plus Fe2+ and aKG [2] | T1/2, temperature where 50% of the protein was unfolded, Buffer [2] | further results
B1 | 47 °C | 21.6% | 16.6% | 31.2% | 5% | 67 °C | 67 °C | temperature sensitivity compared with the wild-type enzyme ([1]; substrate 2,4-D, lower T1/2 than wild-type): slightly more temperature sensitive
B2 | 42 °C | 7.5% | 5.83% | 8.33% | 8.33% | 59 °C | 56 °C | T1/2 higher than the wild-type enzyme [1]: about 1 °C; Relative Expression ([3]; CTP A): 7.80; Relative Expression ([3]; CTP B): 5.95; Relative Expression ([3]; CTP C): 3.82; Relative Expression ([3]; no CTP): 4.31; % Injury from V4 2,4-D (F1 hybrid maize plants; CTP B): 10%; % Injury from V8 2,4-D (F1 hybrid maize plants; CTP B): 10%; % Injury from V4 Quizalofop (F1 hybrid maize plants; CTP B): 7.5%; % Injury from V8 Quizalofop (F1 hybrid maize plants; CTP B): 8.75%; % Injury from V4 2,4-D (F1 hybrid maize plants; CTP C): 14.09%; % Injury from V8 2,4-D (F1 hybrid maize plants; CTP C): 11.36%; % Injury from V4 Quizalofop (F1 hybrid maize plants; CTP C): 0.45%; % Injury from V8 Quizalofop (F1 hybrid maize plants; CTP C): 0.91%; % Injury from V4 2,4-D (F1 hybrid maize plants; CTP None): 12.86%; % Injury from V8 2,4-D (F1 hybrid maize plants; CTP None): 10.71%; % Injury from V4 Quizalofop (F1 hybrid maize plants; CTP None): 7.14%; % Injury from V8 Quizalofop (F1 hybrid maize plants; CTP None): 7.86%; Melting temp, Buffer ([2]; Table 11 series): 58 °C; Melting temp, Buffer plus Fe2+ and aKG ([2]; Table 11 series): 62 °C
B3 | 29 °C |  |  |  |  | 41 °C | 41 °C | 
B4 |  | 28% | 38.33% | 0% | 0% | 44 °C | 44 °C | 
B5 |  | 27% | 12.7% | 8% | 1.7% | 44 °C | 44 °C | 
